Values joined by “and” are separate entries in the source; they are usually repeats but may differ in a detail not shown here. Identical values can stand only once.
Assays:
[1] = system: human microvascular endothelial cells (HMVECs); test: VEGF-induced migration of HMVECs, modified Boyden chamber; assay type: cell-based; conditions: 100 ng/ml, VEGF 5 ng/ml
Description: Endostatin peptides were tested for anti-endothelial cell migration activity. Inhibition of VEGF-induced migration of human microvascular endothelial cells (HMVECs) was determined using several doses of endostatin peptides (FIG. 5). Human peptides were used because the cells were of human origin and the migration response of the HMVECs was assayed using a modified Boyden chamber. VEGF (5 ng/ml) was used a chemotactic agent and cells were challenged with human endostatin (Entremed; EM-ES), human Fc-Endostatin (nFcES), human P1 (hP1), human P2 (hP2), human P6 (hP6), and human P1-H1/3A (hP1-H1/3A). Total migration per membrane was quantified from the capture images using Scion Image Software (National Institutes of Health) and the unpaired Student T test was used for statistical analysis. […] No significant differences in inhibition between these concentrations were observed. At higher and lower concentrations less or no inhibition was observed. At 500 ng/ml of hP1 no inhibition was observed. Thus, similar to full-length endostatin, there is a U-shaped response to hP1 inhibition of EC migration.
The motility response of HMVEC-d cells was assayed using a modified Boyden chamber. Cells were plated in T75-cm2 flasks at 0.5×10^6 cells per flask and allowed to grow for 48 h (˜70% confluent) prior to the migration assay. To facilitate cell adhesion, the upper membrane of a transwell ([…]; Costar) was coated with fibronectin ([…]; Becton Dickinson, Bedford, Mass.) for 1 h at 37° C. Coated membranes were rinsed with PBS and allowed to air dry immediately before use. Cells were detached by trypsinization, treated with trypsinization neutralization solution (Clonetics), and resuspended at a final concentration of 1×10^6 cells/ml in serum-free endothelial basal medium (EBM; Clonetics) containing 0.1% BSA. Cells (200,000 in 0.2 ml) were then treated with 0.2 ml of EBM/BSA containing endostatin or peptides at the indicated concentrations. Cells were incubated for 20 min. at 37° C. with occasional shaking. Cells (50,000 in 100 μl) were added to the upper chamber of the transwell. EBM or EBM supplemented with VEGF (5 ng/ml) was added to the lower chamber and cells were allowed to migrate toward the bottom chamber for 4 h in a humidified incubator containing 5% CO2. Transwell filters were rinsed once with PBS and fixed and stained using a Diff-Quik staining kit (Baxter) following the manufacturer's protocol. Non-migrated cells were removed from the upper chamber with a cotton swab. Stained filters were cut out of the chamber and mounted onto slides using Permount (Fisher). The number of migrated cells was measured using microscopy (three fields from each membrane were captured using a 40× objective), and images were captured with a CCD camera using SPOT software. Total migration per membrane was quantified from the captured images using Scion Image software (National Institutes of Health). All experiments were run in triplicate. The unpaired Student t-test was used for statistical analysis.

[2] = system: human umbilical vein endothelial cells (HUVEC); test: VEGF stimulated migration of HUVEC, modified Boyden chambers; assay type: cell-based; conditions: FIG. 13
Description: Cell migration assays were performed using modified Boyden chambers (6.5-mm diameter, 10-μm thickness, 8-μm pores, Transwell-Costar Corp., Cambridge, Mass.) coated with 10 μg/ml fibronectin in PBS overnight at 4° C. and rinsed with PBS. Subconfluent cells were trypsinized (0.01% trypsin/5 mM EDTA), neutralized with trypsin neutralization solution (Cascade Biologics Inc., Portland, Oreg.), washed, and resuspended in endothelial basal medium (EBM; Clonetics) with 0.1% BSA in the presence or absence of human endostatin (40, 200, 1000 ng/ml). In a second experiment we added either 600 ng/ml human endostatin or mP-1 at various doses (60, 200, 600 ng/ml). Cells were maintained in suspension for 30 min, added to the top of each migration chamber and allowed to migrate for 4 h in the presence or absence of VEGF (5 ng/ml) in lower chamber. Adherent cells were fixed and stained using the Hema-3 Stain System (Fisher Diagnostics, Middletown, Va.), following manufacturer's instructions. Non-migratory cells were removed with a cotton swab, and the number of migratory cells per membrane was captured using bright field microscopy connected to a Spot digital camera (Diagnostic Instruments, Sterling Heights, Mich.). Migrated cells from the captured image were counted using NIH image software. […]

Female SCID mice = test: Fertility, pregnancy and offspring in tumor-bearing female SCID mice
Description: Female SCID mice were injected with human pancreatic tumor cells subcutaneously. When tumors reached a volume of approximately 100 mm^3 endostatin or placebo treatment was initiated and continued until the end of the study. After three days, females were mated.
Human BxPC-3 cells were grown in cells culture as described above. After washing with sterile PBS, cells were trypsinized and briefly re-suspended in RPMI 1640 medium containing 10% fetal calf serum (FCS) and 1% glutamine penicillin streptomycin (GPS) solution. After centrifuging, the cell concentration was adjusted to 50×10^6 cells/ml in additive-free RPMI 1640 medium and kept on ice. Female SCID mice were shaved on the dorsal side and the naked skin was cleaned with ethanol prior to injection. A suspension of 5×10^6 cells/ml in 100 μl was then injected subcutaneously into the dorsa of these mice at about one centimetre left of the midline.
Mice were weighed and tumors were measured every 7 days in two diameters using a dial-caliper. Tumor volumes were calculated using the formula a^2×b×0.52, while a being the shorter and b being the longer diameter. When tumors had reached a volume of approximately 100 mm^2 mice were divided into four groups.
During the first experiment, one group received endostatin (20 mg/kg; n=8) or vehicle (n=8) via subcutaneous osmotic pumps (Durect Corp., Cupertino, Calif.). Pumps were inserted via a small incision and placed into a subcutaneous pocket on the right lateral aspect of the animals' dorsa. The pumps were changed every week for a total of four weeks.
The other group received daily subcutaneous injections of endostatin (100 mg/kg, n=5) or vehicle (n=5) for the same period.
During a second study we repeated the experiment with endostatin in subcutaneous pumps. The other group in this series received the murine N-terminal fragment of endostatin (mP-1) at a dose of 2.5 mg/kg twice daily or PBS (n=5 each).
Three days after initiation of treatment female mice were added to a cage containing a male SCID mouse in a 1:1 ratio. All males had been housed separately three days prior to encountering the females and female bedding had been added to the male cages to enhance the males' libido.
For the following seven days every female was checked for a vaginal mucous plug as a sign of mating. These exams were performed during the early morning hours to optimize the results. Once a mucous plug had been noticed, mating was considered ‘successful’, and the female was not further examined in order to minimize iatrogenic stress.
Over the course of pregnancy the following parameters were assessed: ‘Mating Time’ describing the time between male encounter and the occurrence of a mucous plug; ‘Pregnancy Rate’, measured by ultrasound 15 days after the mucous plug was observed. The number of viable fetus was counted during this procedure; ‘Length of Pregnancy’, as measured from the time of successful mating to delivery; ‘Number of Total and Viable Litter’, counted on the day of birth; ‘Weight of Individual Pup’, by weighing the entire litter on the day of birth and calculating the mean weight.

B1: human endostatin (EntreMed): recombinant human endostatin, gift from EntreMed Corporation (protein, listed as Homo sapiens)
chain: HSHRDFQPVLHLVALNSPLSGGMRGIRGADFQCFQQARAVGLAGTFRAFLSSRLQDLYSIVRRADRAAVPIVNLKDELLFPSWEALFSGSEGPLKPGARIFSFNGKDVLTHPTWPQKSVWHGSDPNGRRLTESYCETWRTEAPSATGQAYSLLGGRLLGQSAASCHHAYIVLCIENSFMTASK
Question: Which “inhibition of EC migration” value [1] does the source give for B1 here?
Answer: not at 100 ng/ml

Question: What about the “migration of HUVEC” value [2] of the same molecule?
Answer: inhibit migration

Question: And the “mean length of pregnancy” value (Female SCID mice; endostatin pumps, two experiments)?
Answer: 20.6 ± 1.2 days and 20.75 ± 2 days

Question: What about the “pregnancy rate with live births” value (Female SCID mice; injection group) of the same molecule?
Answer: 60%

Question: What about the “litter size per delivery” value (Female SCID mice; injection studies, PBS 4.2±2.4) of the same molecule?
Answer: 5±1

Question: And the “effect on the offspring” value (Female SCID mice; offspring of treated mice)?
Answer: did not see any negative effect on the offspring

Question: What about the “litter size per delivery” value (Female SCID mice; pump group, PBS 4.6±1.7) of the same molecule?
Answer: 5±1.8

Question: And the “mean weight of pups on the day of delivery” value (Female SCID mice; pump groups, PBS 1.4)?
Answer: 1.51 g

Question: And the mating time (Female SCID mice; s.c. injections (endostatin 100 mg/kg daily; mP-1 2.5 mg/kg twice daily), PBS 1.9±0.9)?
Answer: 2.8 ± 1.5 days

Question: What about the mating time (Female SCID mice; s.c. osmotic pumps (endostatin 20 mg/kg), PBS 2.0±1) of the same molecule?
Answer: 2.6 ± 1.4 days
